Assay results published in patent US12123876B2, “Antibody binding to HEG1 and use of the antibody for detection and treatment of mesothelioma” (Kanagawa Prefectural Hospital Organization, priority 2016, dated 2024).

B1: intelectin-fused antibody: VH and CH1 of SKM9-2 H chain fused to human intelectin positions 19-313, co-expressed with SKM9-2 L chains (protein)
chain: QVQLQQPGAELVRPGASVKLSCKASGFSFTTYWITWVKQRPGQGLEWIGMIHPSDSETRLSQTFKDKATLTVDKSSNTAYMQFSSPTSEDSAVYYCVRDFDVWGAGTTVTVSSAKTTPPSVYPLAPGSAAQTNSMVTLGCLVKGYFPEPVTVTWNSGSLSSGVHTFPAVLQSDLYTLSSSVTVPSSTWPSETVTCNVAHPASSTKVDKKIVPRDCGTDEANTYFKEWTCSSSPSLPRSCKEIKDECPSAFDGLYFLRTENGVIYQTFCDMTSGGGGWTLVASVHENDMRGKCTVGDRWSSQQGSKADYPEGDGNWANYNTFGSAEAATSDDYKNPGYYDIQAKDLGIWHVPNKSPMQHWRNSALLRYRTDTGFLQTLGHNLFGIYQKYPVKYGEGKCWTDNGPVIPVVYDFGDAQKTASYYSPYGQREFTAGFVQFRVFNNERAANALCAGMRVTGCNTEHHCIGGGGYFPEASPQQCGDFSGFDWSGYGTHVGYSSSREITEAAVLLFYR
light: DVLMTQTPLSLPVSLGDQASISCRSSQNIVHNNGNTYLGWYLQKPGQSPKLLIFKVSNRFSGVPDRFSGSGSGTDFTLKISRVEAEDLGVYYCFQGSHIPRTFGGGTRLEIKRADAAPTVSIFPPSSEQLTSGGASVVCFLNNFYPKDINVKWKIDGSERQNGVLNSWTDQDSKDSTYSMSSTLTLTKDEYERHNSYTCEATHKTSTSPIVKSFNRNEC
B2: 7.62: SEQ ID NO: 45 (EKVITESKSPSLVSLPTEST) bonded to SLURPgpi (protein)
chain: EKVITESKSPSLVSLPTESTGSLKCYTCKEPMTSASCRTITRCKPEDTACMTTLVTVEAEYPFNQSPVVTRSCSSSCVATDPDSIGAAHLIFCCFRDLCNSELSRDGAPSLGSPGGLLLALALFLLLGVLL
B3: 7.623: SEQ ID NO: 48 (SKSPSLVSLPTEST) bonded to SLURPgpi (protein)
chain: SKSPSLVSLPTESTGSLKCYTCKEPMTSASCRTITRCKPEDTACMTTLVTVEAEYPFNQSPVVTRSCSSSCVATDPDSIGAAHLIFCCFRDLCNSELSRDGAPSLGSPGGLLLALALFLLLGVLL

Columns and labels:
[1] = test system: HEG1 protein (purified from ACC-MESO4 or recombinant soluble HEG1); test: Western blot / dot blot reactivity of antibodies with HEG1 protein; format: binding, human; details: Western blot, anti-human intelectin antibody-HRP as secondary antibody
Description: A massive amount of ACC-MESO4 was cultured, and purification of an antigen from the cell lysate was performed. Cells from 240 10-cm dishes were solubilized with 50 mM Tris buffer (pH 8.0) containing 1% TRITON™ X-100 (detergent), 1% CHAPS, 1 mM EDTA, 50 mM NaCl, and protease inhibitor (Complete, Roche Life Science), and then centrifuged. The resulting supernatant was dialyzed with 20 mM acetate buffer (pH 5.0) at 4° C. for 18 hours to afford an acidic precipitate. The precipitate was extracted with 20 mM Tris buffer (pH 7.2) containing 0.1% TWEEN® 20 (polyethylene glycol sorbitan monolaurate, polyoxyethylenesorbitan monolaurate) and 150 mM NaCl and centrifuged, and the resulting supernatant was concentrated by using an Amicon Ultra-15, 100 kDa (Merck Millipore) and subjected to solution exchange with 20 mM Tris buffer (pH 8.0) containing 6 M guanidine hydrochloride. To the concentrated solution, tris(2-carboxyethyl)phosphine hydrochloride with a final concentration of 10 mM was added, and the resultant was heated at 60° C. for 30 minutes, and iodoacetamide with a final concentration of 40 mM was then added thereto, and reacted at room temperature for 3 hours. The reaction solution was subjected to gel filtration chromatography (SUPEROSE® 6 INCREASE (prepacked column) 10/300 GL (GE Healthcare)) in 20 mM Tris buffer (pH 8.0) containing 6 M guanidine hydrochloride and 0.05% TWEEN® 20 (polyethylene glycol sorbitan monolaurate, polyoxyethylenesorbitan monolaurate), and fractions positive for dot blot were collected. The sample was dialyzed with 25 mM phosphate buffer (pH 7.0) containing 4 M urea and 0.05% TWEEN® 20 (polyethylene glycol sorbitan monolaurate, polyoxyethylenesorbitan monolaurate) at room temperature overnight, and applied to a Mono Q 5/50 GL (GE Healthcare). The column was washed with 25 mM phosphate buffer (pH 7.0) containing 4 M urea and 0.05% TWEEN® 20 (polyethylene glycol sorbitan monolaurate, polyoxyethylenesorbitan monolaurate), and thereafter elution was performed with an NaCl salt concentration gradient of 0 to 1 M. Fractions strongly positive for dot blot were collected, and dialyzed with 25 mM phosphate buffer (pH 7.2) containing 150 mM NaCl and 0.05% TWEEN® 20 (polyethylene glycol sorbitan monolaurate, polyoxyethylenesorbitan monolaurate) at room temperature overnight, and applied to 1 mL of WGA-SEPHAROSE® (wheat germ agglutinin-crosslinked, beaded-form of agarose) (J-OIL MILLS, Inc.). After washing with buffer, elution was performed with 25 mM phosphate buffer (pH 7.2) containing 0.2 M N-acetylglucosamine, 150 mM NaCl, and 0.05% TWEEN® 20 (polyethylene glycol sorbitan monolaurate, polyoxyethylenesorbitan monolaurate), and the eluent was concentrated with a Centricon (YM-30) (Millipore). Gel filtration chromatography (SUPEROSE® 6 INCREASE (prepacked column) 10/300 GL (GE Healthcare)) was performed in 25 mM phosphate buffer (pH 7.2) containing 3 M GdnHCI and 0.5% CHAPS, and fractions strongly positive for dot blot were dialyzed with 20 mM NH4HCO3 containing 0.5% CHAPS at room temperature overnight to afford a purified antigen.
The dot blot was performed as follows. A PVDF membrane (Immobilon-P, Merck Millipore) was soaked in methanol, and then washed and impregnated with pure water. The hydrophilized PVDF membrane was placed on a filter paper containing water to avoid air inclusion, removed of excessive moisture, and soaked with 1 to 5 μL of the sample in dots fed by a micropipette. After the membrane was dried at room temperature overnight, the membrane was hydrophilized again with methanol and pure water, and blocked with 20 mM Tris buffer (pH 7.4) containing 5% skim milk, 0.1% TWEEN® 20 (polyethylene glycol sorbitan monolaurate, polyoxyethylenesorbitan monolaurate), and 150 mM NaCl (blocking buffer) at room temperature for 1 hour. […]

[2] = test system: SKM9-2 antibody; test: Western blot reactivity of human HEG1 fragments expressed in ACC-MESO-1 with SKM9-2 antibody; format: binding, mouse; details: Western blot of cell lysate
Description: In this Example, the mesothelioma cell line ACC-MESO-1 was allowed to express a human HEG1 fragment with the endogenous HEG1 of ACC-MESO-1 knocked down, and the reactivity with the SKM9-2 antibody was examined. Subsequently, the reactivity with the antibody was tested for the epitope region through alanine scanning, and key amino acids for binding to the antibody were determined.
Gene transfer was performed with HEG1 siRNA (H9106) (SEQ ID NOs: 40, 41) and human HEG1 for the mesothelioma cell line ACC-MESO-1, and the reactivity of the SKM9-2 was examined through Western blot analysis. A full length protein (HEG1 full length) or a fragment (HEG1 3 kb, HEG1 2 kb, or HEG1 1 kb) of the human HEG1 was used. The full length human HEG1 protein, a protein having the amino acid sequence set forth in SEQ ID NO: 35, was obtained through inserting a base sequence set forth in SEQ ID NO: 34 into pFLAG-CMV1 (Sigma-Aldrich Japan K.K.) to obtain a plasmid, transforming the plasmid, and allowing the mesothelioma cell line to express the plasmid. Fragment HEG1 3 kb was obtained through inserting a fragment corresponding to a sequence from position 285, leucine, to position 1387, phenylalanine, of SEQ ID NO: 35 into pFLAG-CMV1 (Sigma-Aldrich Japan K.K.) in an in-frame manner, and allowing the mesothelioma cell line to express the resultant. HEG1 2 kb and HEG1 1 kb were obtained through allowing the mesothelioma cell line to express products similarly obtained from a fragment corresponding to a sequence from position 677, leucine, to position 1387, phenylalanine, of SEQ ID NO: 35 and a fragment corresponding to a sequence from position 992, valine, to position 1387, phenylalanine, of SEQ ID NO: 35, respectively. Each cell lysate was analyzed through Western blot with the SKM9-2 antibody.
Further, the region in exon 7 of HEG1 was analyzed in detail. The amino acid sequence of a part of exon 7 of HEG1 was connected to the N-terminal side of a protein obtained by connecting a GPI anchor signal to human SLURP1 (SEQ ID NO: 42; hereinafter referred to as “SLURPgpi”) to produce a fusion protein, and the reactivity of the SKM9-2 was examined through Western blot analysis with the fusion protein. A signal sequence (SEQ ID NO: 43) was added to the N-terminal of the fusion protein before expression.
Used fusion proteins of a partial sequence of exon 7 of HEG1 and SLURPgpi were as follows: • a fragment obtained by bonding a fragment from amino acid No. 783, aspartic acid, to amino acid No. 991, serine, to SLURPgpi (7.6); • a fragment obtained by bonding a fragment from amino acid No. 832, glutamine, to amino acid No. 991, serine, to SLURPgpi (7.7); • a fragment obtained by bonding a fragment from amino acid No. 886, glutamine, to amino acid No. 991, serine, to SLURPgpi (7.8); • a fragment obtained by bonding a fragment from amino acid No. 941, alanine, to amino acid No. 991, serine, to SLURPgpi (7.9); • a fragment obtained by bonding SEQ ID NO: 44 to SLURPgpi (7.61); • a fragment obtained by bonding SEQ ID NO: 45 to SLURPgpi (7.62); • a fragment obtained by bonding SEQ ID NO: 46 to SLURPgpi (7.63); • a fragment obtained by bonding SEQ ID NO: 47 to SLURPgpi (7.64); • a fragment obtained by bonding SEQ ID NO: 48 to SLURPgpi (7.623); • a fragment obtained by bonding SEQ ID NO: 49 to SLURPgpi (7.6231); • a fragment obtained by bonding SEQ ID NO: 50 to SLURPgpi (7.6232); • a fragment obtained by bonding SEQ ID NO: 51 to SLURPgpi (7.6241); and • a fragment obtained by bonding SEQ ID NO: 52 to SLURPgpi (7.6242).

Row | Molecule | Recognition of glycosylated HEG1 protein [1] | Recognition of glycosylated HEG1 protein ([1]; listed as protein complex including VH regions and CH1 regions of SKM9-2 antibody fused to) | Binding to SKM9-2 antibody (positive/negative) [2] | Binding to SKM9-2 antibody (positive/negative) ([2]; listed as fragment 7.62) | Binding to SKM9-2 antibody (positive/negative) ([2]; listed as fragment 7.623)
1 | B1 | recognized the glycosylated HEG1 protein | allows detection of HEG1 protein |  |  | 
2 | B2 |  |  | positive | positive signal | 
3 | B3 |  |  | positive |  | positive signal
